B1: ADAMTSL2 (parent)
chain: KKPPEESTCFERPCFKWYTSPWSE
B2: RHOBTB1 (parent)
chain: TFGDHHKDRRFAYGRSDVVVLCFS

Variants of: B1
Assay: protein stability index of a GFP-peptide fusion (GPS, HEK-293T) (PSI 1-6); higher = more stable
Conditions: c terminus: a fixed tail appended
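Also: lentivirally expressed fusions sorted by FACS into six bins by GFP to DsRed ratio, PSI derived from sequencing read proportions per bin multiplied by bin number.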

Protein stability index, by site and new letter:
E11: W 1.64; Y 2.19
R12: A 2.65; C 1.69; D 3; E 2.95; F 1.71; G 2.42; H 2.63; I 2.03; K 2.5; L 2.04; M 2.16; N 2.55; P 2.77; Q 2.3; S 2.79; T 2.09; V 2.29; W 2.24; Y 2.84
P13: A 2.23; C 1.84; D 2.39; E 2.49; F 2.18; G 2.27; H 2.21; I 2.02; K 2.58; L 2.09; M 2.02; N 2.32; Q 2.1; R 1.79; S 2.31; T 2.16; V 1.96; Y 1.87
C14: A 2.94; D 3.26; E 2.89; F 2.39; G 3.12; H 2.23; I 2.23; K 2.69; L 2.25; M 2.62; N 2.98; P 3.09; Q 2.68; R 3.7; S 2.23; T 2.42; V 2.58; W 1.9; Y 2.02
F15: A 2.75; C 2.93; D 3.26; E 3.25; G 2.25; H 2.6; I 2.79; K 2.64; L 1.61; M 2.06; N 2.63; P 2.31; Q 2.63; R 2; S 2.6; T 2.89; V 2.87; W 2.25; Y 2.77
K16: A 2.62; C 2.07; D 3.04; E 3.35; F 1.9; G 1.67; H 4.02; I 1.77; L 2.51; M 2.43; N 2.63; P 2.13; Q 2.8; R 2.27; S 2.49; T 2.22; V 1.94; W 1.86; Y 1.72
W17: A 3.79; C 2.56; D 3.6; E 3.19; F 2.88; G 3.35; H 2.57; I 2.46; K 3.53; L 2.37; M 2.9; N 3.42; P 3.5; Q 2.85; R 2.96; S 3.33; T 2.9; V 2.52; Y 2.86
Y18: A 2.87; C 2.33; D 3.48; E 3.15; F 1.86; G 2.99; H 2.97; I 2.15; K 3.04; L 2.45; M 2.38; N 2.81; P 3.02; Q 2.58; R 2.71; S 3.18; T 3; V 2.22; W 2.57
T19: A 2.28; C 2.13; D 2.65; E 3.38; F 2.28; G 2.82; H 2.65; I 2.35; K 2.03; L 2.73; M 2.2; N 3.43; P 2.86; Q 1.89; R 2.22; S 3.24; V 2.78; W 2.05; Y 1.84
S20: A 2.88; C 1.99; D 2.42; E 2.11; F 2.02; G 2.29; H 2.25; I 2.59; K 2.61; L 1.95; M 2.08; N 2.58; P 2.04; Q 2.35; R 2.86; T 2.15; V 1.93; W 4.33; Y 2.37
P21: A 2.41; C 2.39; D 3.04; E 2.72; F 1.78; G 2.16; H 2.46; I 2.38; K 2.7; L 2.4; M 1.44; N 2.16; Q 2.2; R 2.17; S 1.87; T 2.75; V 2.33; W 1.68; Y 1.73
W22: A 4.34; C 3.35; D 3.79; E 4.18; F 2.98; G 3.51; H 3.6; I 3.03; K 3.6; L 3.07; M 2.6; N 3.28; P 4; Q 3.82; R 2.95; S 3.61; T 3.97; V 3.27; Y 3.05
S23: A 1.74; C 2.23; D 2.48; E 3.02; F 1.69; G 1.91; H 2.55; I 2.6; K 2.53; L 2.34; M 2.04; N 2.5; P 2.6; Q 2.47; R 2.22; T 1.87; V 2.23; W 2.19; Y 2.35
E24: A 2.06; C 2.22; D 2.76; F 2.27; G 2.27; H 2.04; I 1.73; K 1.82; L 1.72; M 1.68; N 1.6; P 2.4; Q 2.37; R 1.83; S 2.07; T 1.97; V 1.83; W 2.09; Y 2.11

Variants of: B2
Assay: as above
Conditions: c terminus: a fixed tail appended

Protein stability index: each site, then its substitutions
T1: A 2.71; E 2.06; F 4.17; K 2.48; L 2.59; N 1.89; P 2.61; Q 2.25; V 3.58
F2: A 1.63; C 3.44; D 2.19; E 1.31; H 1.85; I 2.17; K 2.65; L 2.32; M 1.81; N 2.23; P 3.35; S 1.02; W 2.28
G3: A 1.83; D 2.11; E 2.98; F 1.39; I 2.42; K 1.74; N 1.98; P 2.48; R 1.52; S 2.45; V 3.29; W 2.33
D4: E 3.4; H 1.51; K 2.06; L 3.29; N 2.15; P 2.46; Q 3.51; T 2.54; W 3.1; Y 3.19
H5: A 2.25; C 2.27; D 2.41; F 2.45; G 1.21; L 2.09; P 3.97; Q 2.74; R 2.59; W 3.81; Y 2.15
H6: C 1.2; E 3; F 2.33; K 2.33; L 3.15; Q 2.14; S 2.21; T 1.94
K7: A 1.53; C 2.42; D 2.76; F 3.68; G 3.09; L 1.46; M 3.46; N 3.44; Q 2.38; S 3.12; T 3.37; W 3.28; Y 3.88
D8: E 2.77; F 1.92; G 1.87; H 2.82; L 4.19; N 2.29; P 2.77; Q 4.86; R 2.96; S 2.76
